Molecular target: vinc_mouse Vcl (UniProt Q64727)
Sequence (Q64727 whole entry): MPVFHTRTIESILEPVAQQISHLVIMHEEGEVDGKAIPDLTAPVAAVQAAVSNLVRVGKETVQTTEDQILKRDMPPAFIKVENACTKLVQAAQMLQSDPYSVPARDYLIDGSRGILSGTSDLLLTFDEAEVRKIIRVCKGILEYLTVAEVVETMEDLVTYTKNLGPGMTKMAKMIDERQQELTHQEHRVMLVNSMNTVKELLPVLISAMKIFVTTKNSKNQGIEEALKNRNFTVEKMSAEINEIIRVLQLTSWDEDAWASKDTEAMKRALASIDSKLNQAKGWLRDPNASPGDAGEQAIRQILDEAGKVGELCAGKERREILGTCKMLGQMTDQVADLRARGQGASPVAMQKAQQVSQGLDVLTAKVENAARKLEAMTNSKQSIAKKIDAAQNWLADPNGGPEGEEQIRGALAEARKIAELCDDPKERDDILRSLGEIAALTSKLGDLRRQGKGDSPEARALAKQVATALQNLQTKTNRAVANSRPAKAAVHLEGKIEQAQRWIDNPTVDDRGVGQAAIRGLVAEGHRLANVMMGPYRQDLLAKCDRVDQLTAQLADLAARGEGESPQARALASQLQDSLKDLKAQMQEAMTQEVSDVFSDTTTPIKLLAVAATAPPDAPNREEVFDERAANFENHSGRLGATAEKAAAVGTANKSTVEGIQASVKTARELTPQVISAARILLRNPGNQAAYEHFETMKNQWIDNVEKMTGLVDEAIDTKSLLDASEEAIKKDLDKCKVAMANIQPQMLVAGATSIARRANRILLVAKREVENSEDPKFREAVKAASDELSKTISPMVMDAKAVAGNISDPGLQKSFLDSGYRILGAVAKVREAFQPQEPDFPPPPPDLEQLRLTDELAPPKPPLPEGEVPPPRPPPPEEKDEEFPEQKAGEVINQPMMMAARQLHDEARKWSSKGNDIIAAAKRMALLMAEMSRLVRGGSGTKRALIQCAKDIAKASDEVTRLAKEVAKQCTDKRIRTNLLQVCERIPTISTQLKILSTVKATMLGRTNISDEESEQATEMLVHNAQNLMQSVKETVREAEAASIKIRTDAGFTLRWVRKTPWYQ

Chain of Paxillin (Gallus gallus (Chicken)), P49024 E151Q (P49024 whole entry E151Q): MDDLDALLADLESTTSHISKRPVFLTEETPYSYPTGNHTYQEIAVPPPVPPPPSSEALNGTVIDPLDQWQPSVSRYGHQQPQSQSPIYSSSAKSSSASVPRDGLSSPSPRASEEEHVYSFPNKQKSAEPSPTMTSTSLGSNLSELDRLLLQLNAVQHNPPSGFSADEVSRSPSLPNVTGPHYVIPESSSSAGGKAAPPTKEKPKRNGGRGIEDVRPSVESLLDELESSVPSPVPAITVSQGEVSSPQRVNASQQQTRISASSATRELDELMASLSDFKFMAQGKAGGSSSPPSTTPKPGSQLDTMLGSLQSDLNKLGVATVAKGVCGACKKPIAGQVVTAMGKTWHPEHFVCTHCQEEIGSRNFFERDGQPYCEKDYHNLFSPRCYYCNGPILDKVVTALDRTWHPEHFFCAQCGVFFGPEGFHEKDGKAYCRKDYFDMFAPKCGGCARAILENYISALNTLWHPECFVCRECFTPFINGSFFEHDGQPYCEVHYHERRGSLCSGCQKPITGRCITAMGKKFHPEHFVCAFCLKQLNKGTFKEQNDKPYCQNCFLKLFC

effect of a mutation on the interaction: decreasing interaction strength
Substance: Paxillin (Gallus gallus (Chicken)), P49024 E151Q

Reference: IntAct's records for PubMed 23260139
